Series [1] deals with T1, MYB101 MYB domain (Arabidopsis thaliana, UniProt O80883 1-133).
T1 sequence: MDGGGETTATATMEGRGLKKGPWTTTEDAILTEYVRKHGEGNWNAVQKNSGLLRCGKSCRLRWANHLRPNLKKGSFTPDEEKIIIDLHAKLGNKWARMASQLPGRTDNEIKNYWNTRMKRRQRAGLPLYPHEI
Kind of series: competition; 500x molar excess vs labeled DG2WT; 10 mM Tris-Cl, 50 mM KCl, 1 mM DTT, pH 7.5, room temperature 20 min; 20 fmol probe, 200 ng protein, 50 ng poly(dI-dC) in 20 ul; 6% native PAGE, 0.5x TBE. To be noted: protein: recombinant; tags: 6xHis (pET-30a(+)); annealed complementary oligonucleotides.

For series [2], the target named is T1, MYB101 MYB domain. Kind of series: EMSA; 10 mM Tris-Cl, 50 mM KCl, 1 mM DTT, pH 7.5, room temperature 20 min; 20 fmol probe, 200 ng protein, 50 ng poly(dI-dC) in 20 ul; 6% native PAGE, 0.5x TBE. To be noted: protein: recombinant; tags: 6xHis (pET-30a(+)); annealed complementary oligonucleotides.

B1: mDG2WT (dsDNA)
DNA 1: GACACAAATCAACAGCTCGAGGACAAAATT
DNA 2: AATTTTGTCCTCGAGCTGTTGATTTGTGTC
Regarding B1, in the series with MYB101 MYB domain [1], the binding result is on record as “no binding”.

B2: DG2WT (dsDNA)
DNA 1: GACACAAATCAACAGTAACAAAACAAAATT
DNA 2: AATTTTGTTTTGTTACTGTTGATTTGTGTC
Consider B2, for which the binding result with MYB101 MYB domain [2] is on record as “binds”.

B3: DG3WT (dsDNA)
DNA 1: ACGTCGGAAGGATTAACAAAAAAAAAGCCGTGGCGTT
DNA 2: AACGCCACGGCTTTTTTTTTGTTAATCCTTCCGACGT
As to B3, in the series with MYB101 MYB domain [2], the binding result is given as “binds”.

B4: DG1WT (dsDNA)
DNA 1: TTATGCATATAACAAAAATAATTTCAATGC
DNA 2: GCATTGAAATTATTTTTGTTATATGCATAA
Turning to B4, the binding result in the series with MYB101 MYB domain [2] is recorded as “binds”.

For the origin of these results see article PMC3836714, “MYB97, MYB101 and MYB120 Function as Male Factors That Control Pollen Tube-Synergid Interaction in Arabidopsis thaliana Fertilization”.
